From publication PMC6602974 (2019)

B1: DH727.2 monoclonal antibody (IgG1) (antibody, V domains shown)
VH: QVQLVQSGAEVKKPGASVKLSCKASGNTFSIYGISWVRQAPGQGLEWMGGIIPPAGLTNYVQRFQGRVTITADTSTTTVYMELSSLTSEDTAVYYCAIRIGRGFDYWGQGVLVTVSS
VL: DIVMTQSPLSLPVTPGETASISCRSSQSLLDSEDGNTYLEWYLQKPGQSPQALIYEASNRASGVPDRFSGSGSDTDFTLKISRVEAEDVGIYYCMQTIEYPFTFGPGTKVDIK
B2: DH753 monoclonal antibody (IgG1) (antibody, V domains shown)
VH: EVHLVESGGGLVQPGGSLRLSCEVSGLTFSNSWMSWVRQAPGKGLEWVGFIKTKADGGTAAYAESVKGRFTISRDDSKNTVFLQMKSLKTEDTAVYYCQGAVVISHEYIEIWGQGALVTVSS
VL: QSVLTQPPSASEAARKSVTISCSGGSSNIGDDSVSWYQQVPGTAPKLLIYYNDRRASGVSDRFSGSKSGTSASLAINGLQSEDEADYYCAAWDDSLSAYIFGSGTRLTVL
B3: CH505 transmitted founder gp120 (domain or fragment)
chain: not shown

What was measured:
[1] = molecular target: B3; test: SPR
[2] = molecular target: DH796.1; test: SPR

Binder | Kd [1] | Kd [2]
B1 | 10.9 nM | 
B2 | 1.2 nM | 
B3 |  | 253 nM
